Measured values taken from the supplement of paper PMC10126150.
± gives the standard deviation of the averaged measurements.

These sequences were tested on ATP (assay: switch fluorescence ratio, 500 uM ATP over buffer (Cy3 cluster intensity, sum of 5 cycles each) (fold (ratio)); higher = stronger signal-on switching upon ATP binding; sequences stand for … in TCGTCGGCAGCGTCAGATGTGTATAAGAGACAGTTTTTTTTTTTTTTTTTTTTTTTTT…TC). Conditions: aptamer strand: ATP DNA aptamer (quencher-CACCTGGGGGAGTATTGCGGAGGAAGG + anchor), 100 nM annealed; ATP concentration: 500 uM.
Procedure, shortened: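 Per cluster, summed Cy3 intensity from the target cycles was divided by that from the buffer cycles to give the fluorescence ratio, then averaged per switch-domain sequence. Clusters outside 100-1000 RFU were excluded. The Cy3-labelled switching-strand clusters, on a modified Illumina MiSeq flow-cell, were annealed to 100 nM quencher-labelled ATP aptamer and imaged in selection buffer, then after 15 min with 500 uM ATP at 22 °C, for five cycles with NaOH stripping and re-annealing between them.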
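Also: ATP exposure 15 min at 22 °C before imaging.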

Row | Sequence | switch fluorescence ratio
1 | ATAAGGTTGT | 0.977 ± 0.025
2 | ATAAGTAAAT | 1 ± 0.018
3 | ATAAGTCCGA | 0.99 ± 0.026
4 | ATAAGTGCTG | 0.991 ± 0.017
5 | ATAATACCTT | 1.15 ± 0.094
6 | ATAATATGTT | 0.9911 ± 0.004
7 | ATAATCAAGG | 1.01 ± 0.032
8 | ATAATCGATT | 0.978 ± 0.011
9 | ATAATCTATC | 0.995 ± 0.045
10 | ATAATCTGCG | 1.01 ± 0.012
11 | ATAATCTGTG | 0.986 ± 0.0023
12 | ATAATGACGT | 1.01 ± 0.049
13 | ATAATGGTGT | 1.03 ± 0.029
14 | ATAATTAACG | 0.986 ± 0.034
15 | ATAATTAAGA | 0.992 ± 0.014
16 | ATAATTAGTA | 0.9455 ± 0.0079
17 | ATAATTCGGT | 0.985 ± 0.025
18 | ATAATTTAGT | 0.982 ± 0.028
19 | ATAATTTTAC | 1.07 ± 0.041
20 | ATAATTTTCA | 1.01 ± 0.03
21 | ATAATTTTGG | 0.973 ± 0.017
22 | ATACAAGGCT | 1.02 ± 0.03
23 | ATACACATAG | 1.04 ± 0.014
24 | ATACGAGAAT | 1 ± 0.023
25 | ATACGAGGGC | 1.01 ± 0.028

Row | Sequence | switch fluorescence ratio
26 | ATACGAGTGC | 1.01 ± 0.012
27 | ATACGATATT | 1.142 ± 0.0033
28 | ATACGATTGG | 0.9674 ± 0.0044
29 | ATACGCAGCG | 0.998 ± 0.01
30 | ATACGGATGG | 0.984 ± 0.033
31 | ATACGGGAGT | 1 ± 0.0018
32 | ATACGGGATT | 1.044 ± 0.0064
33 | ATACGGGGTA | 1.03 ± 0.054
34 | ATACGGTAAT | 1.16 ± 0.052
35 | ATACGTCGGC | 0.984 ± 0.046
36 | ATACGTTCGG | 1.01 ± 0.0015
37 | ATACTCGCGT | 1.014 ± 0.01
38 | ATACTCTTAT | 1.03 ± 0.04
39 | ATACTGCTCT | 0.968 ± 0.059
40 | ATACTGGAAA | 1.011 ± 0.01
41 | ATACTGGGAT | 1.031 ± 0.0015
42 | ATACTTAAGG | 1.016 ± 0.0013
43 | ATACTTATTT | 1.03 ± 0.018
44 | ATACTTTAAA | 1.17 ± 0.1
45 | ATACTTTTGC | 0.952 ± 0.034
46 | ATAGAAAAAT | 1.003 ± 0.0098
47 | ATAGAAGGGG | 1.08 ± 0.14
48 | ATAGAATAGG | 0.9867 ± 0.0065
49 | ATAGAATTTA | 0.956 ± 0.024
50 | ATAGACGGAT | 0.987 ± 0.06

Row | Sequence | switch fluorescence ratio
51 | ATAGAGACTA | 1.006 ± 0.0078
52 | ATAGAGGCTA | 0.992 ± 0.025
53 | ATAGAGTTTG | 0.976 ± 0.0014
54 | ATAGATCATC | 1.05 ± 0.02
55 | ATAGATGAGG | 1.007 ± 0.0046
56 | ATAGATTAGG | 0.9854 ± 0.0092
57 | ATAGCAGGGT | 1 ± 0.012
58 | ATAGCAGGTG | 2.9 ± 1.1
59 | ATAGCCCGCT | 1.03 ± 0.0014
60 | ATAGCCGTGC | 1.017 ± 0.0054
61 | ATAGCGGTCG | 1.01 ± 0.07
62 | ATAGCTGTTA | 0.978 ± 0.05
63 | ATAGCTTGGG | 0.985 ± 0.017
64 | ATAGGAACGT | 1.08 ± 0.1
65 | ATAGGAATTT | 0.993 ± 0.021
66 | ATAGGACAAC | 1.038 ± 0.0081
67 | ATAGGACGGG | 0.967 ± 0.028
68 | ATAGGAGTGC | 1.01 ± 0.023
69 | ATAGGATATA | 1.03 ± 0.018
70 | ATAGGATCAC | 1.02 ± 0.028
71 | ATAGGATCAT | 0.975 ± 0.03
72 | ATAGGATCGC | 0.99 ± 0.039
73 | ATAGGATTTA | 0.989 ± 0.013
74 | ATAGGCATTT | 1.03 ± 0.013
75 | ATAGGGAAGT | 1 ± 0.017

Row | Sequence | switch fluorescence ratio
76 | ATAGGGAATG | 0.9986 ± 0.007
77 | ATAGGGAGGG | 1.012 ± 0.0048
78 | ATAGGGCACA | 1.08 ± 0.015
79 | ATAGGGGACG | 1.01 ± 0.049
80 | ATAGGGGTGG | 1.03 ± 0.018
81 | ATAGGGTGCG | 1 ± 0.03
82 | ATAGGTAGGT | 0.996 ± 0.004
83 | ATAGGTAGTC | 0.996 ± 0.02
84 | ATAGGTCCCG | 1 ± 0.017
85 | ATAGGTGCGG | 0.985 ± 0.021
86 | ATAGTAATCT | 0.993 ± 0.056
87 | ATAGTACAGG | 1.08 ± 0.011
88 | ATAGTACTCG | 1.06 ± 0.057
89 | ATAGTAGGTT | 1.01 ± 0.017
90 | ATAGTCAATT | 0.993 ± 0.071
91 | ATAGTCACAT | 1.02 ± 0.021
92 | ATAGTCAGTA | 1.01 ± 0.019
93 | ATAGTCCAGC | 0.988 ± 0.035
94 | ATAGTCTACG | 1.02 ± 0.042
95 | ATAGTGGAGA | 1.01 ± 0.024
96 | ATAGTGGGAG | 0.992 ± 0.04
97 | ATAGTGGGTC | 1.04 ± 0.025
98 | ATAGTGTGTG | 1.004 ± 0.008
99 | ATAGTTAGGT | 1.03 ± 0.029
100 | ATAGTTGGTG | 0.994 ± 0.029

Row | Sequence | switch fluorescence ratio
101 | ATAGTTGTGA | 0.987 ± 0.024
102 | ATATAAAATG | 0.986 ± 0.0046
103 | ATATAAAGGA | 1.01 ± 0.024
104 | ATATAAATGT | 1.019 ± 0.0066
105 | ATATAAATTA | 1.01 ± 0.05
106 | ATATAAGGGA | 1 ± 0.019
107 | ATATAAGGGC | 1 ± 0.074
108 | ATATACATGG | 1.01 ± 0.035
109 | ATATACTAGA | 1.03 ± 0.049
110 | ATATAGAAAG | 1.02 ± 0.045
111 | ATATAGTAAT | 0.9842 ± 0.0078
112 | ATATATAAGT | 0.972 ± 0.011
113 | ATATATACTG | 1.05 ± 0.071
114 | ATATATGCGG | 1.11 ± 0.12
115 | ATATATGCTC | 1.01 ± 0.016
116 | ATATATTGTA | 1.001 ± 0.0059
117 | ATATATTTTG | 0.972 ± 0.03
118 | ATATCAGCAT | 1.065 ± 0.005
119 | ATATCGACGT | 1 ± 0.013
120 | ATATCTAAGT | 0.9984 ± 0.0034
121 | ATATCTTAGT | 1.017 ± 0.00089
122 | ATATCTTTCG | 1.02 ± 0.014
123 | ATATGACGGT | 0.98 ± 0.029
124 | ATATGAGGCG | 1.05 ± 0.042
125 | ATATGAGTGC | 0.951 ± 0.07

Row | Sequence | switch fluorescence ratio
126 | ATATGGATGG | 0.986 ± 0.025
127 | ATATGGGGGC | 0.972 ± 0.059
128 | ATATGGGTTT | 1.01 ± 0.033
129 | ATATGGTCAT | 0.9719 ± 0.0021
130 | ATATGTGATG | 0.997 ± 0.021
131 | ATATGTGGGC | 0.9577 ± 0.0068
132 | ATATTAAAAG | 0.9959 ± 0.0043
133 | ATATTAAGTT | 1.01 ± 0.003
134 | ATATTACTAG | 0.989 ± 0.035
135 | ATATTAGAAC | 1.01 ± 0.0027
136 | ATATTAGAGG | 0.998 ± 0.037
137 | ATATTAGGGT | 1.01 ± 0.042
138 | ATATTAGTCT | 1.001 ± 0.0035
139 | ATATTATGGA | 1 ± 0.02
140 | ATATTATTCT | 1.005 ± 0.0096
141 | ATATTATTGA | 0.9818 ± 0.0049
142 | ATATTCAGGG | 1.01 ± 0.031
143 | ATATTCGCTC | 1.12 ± 0.1
144 | ATATTCTTGG | 0.9852 ± 0.0026
145 | ATATTGCCTA | 1.003 ± 0.0074
146 | ATATTGTCGT | 1.011 ± 0.0053
147 | ATATTGTTGT | 0.997 ± 0.057
148 | ATATTGTTTG | 1.01 ± 0.1
149 | ATATTTATAG | 0.9944 ± 0.0071
150 | ATATTTCACT | 1.03 ± 0.012

Row | Sequence | switch fluorescence ratio
151 | ATATTTGACA | 1.01 ± 0.026
152 | ATATTTGGGG | 1.02 ± 0.046
153 | ATATTTGGTT | 0.985 ± 0.034
154 | ATATTTTAAG | 0.994 ± 0.034
155 | ATCAAAGGTT | 1.03 ± 0.051
156 | ATCAAGGGGG | 0.992 ± 0.034
157 | ATCAAGGGTG | 1.11 ± 0.013
158 | ATCAAGGTTC | 0.9917 ± 0.0095
159 | ATCAAGTCTT | 0.99 ± 0.016
160 | ATCAATATGT | 0.996 ± 0.029
161 | ATCAATTGTC | 1.07 ± 0.025
162 | ATCACCGCGC | 1.59 ± 0.093
163 | ATCACTGGGC | 1.1 ± 0.092
164 | ATCACTGGGT | 0.9976 ± 0.0051
165 | ATCAGATGAT | 1.0009 ± 0.00017
166 | ATCAGCTGTG | 1.02 ± 0.024
167 | ATCAGGAAGT | 0.992 ± 0.062
168 | ATCAGGCGGA | 1 ± 0.045
169 | ATCAGGGTGG | 0.987 ± 0.032
170 | ATCAGGGTTT | 1.005 ± 0.0057
171 | ATCAGTAAAA | 1.01 ± 0.035
172 | ATCAGTGATG | 1 ± 0.046
173 | ATCAGTGGTT | 0.974 ± 0.013
174 | ATCAGTGTGG | 0.967 ± 0.038
175 | ATCATACCGG | 1 ± 0.035

Row | Sequence | switch fluorescence ratio
176 | ATCATACGGA | 1.034 ± 0.0088
177 | ATCATATGGA | 0.985 ± 0.037
178 | ATCATCGCTA | 1.094 ± 0.0084
179 | ATCATCGGGA | 1.01 ± 0.013
180 | ATCATGACTG | 1.015 ± 0.005
181 | ATCATGAGTC | 0.972 ± 0.03
182 | ATCATGCTGT | 0.9976 ± 0.0017
183 | ATCATGGGGT | 0.984 ± 0.041
184 | ATCATGGGTA | 0.9757 ± 0.0069
185 | ATCATGTGCA | 0.9627 ± 0.0073
186 | ATCATGTGGG | 0.999 ± 0.018
187 | ATCATGTGTA | 1.01 ± 0.04
188 | ATCATTGAGA | 0.9972 ± 0.0043
189 | ATCATTGGG | 1.014 ± 0.008
190 | ATCATTTGGG | 0.997 ± 0.039
191 | ATCATTTTTA | 1.01 ± 0.02
192 | ATCATTTTTG | 1 ± 0.025
193 | ATCCCAGGGT | 1.89 ± 0.076
194 | ATCCGAACGG | 1.03 ± 0.048
195 | ATCCGCGATT | 4.88 ± 1.1
196 | ATCCGCGGTG | 1.18 ± 0.075
197 | ATCCGGGCGC | 1.08 ± 0.1
198 | ATCCGTATGT | 1.05 ± 0.014
199 | ATCCTAGGGC | 1.007 ± 0.0095
200 | ATCCTCTTGC | 1.09 ± 0.036
